Experimental data reported in patent US20230265151A1, “GIP/GLP1 CO-AGONIST COMPOUNDS” (priority 2020, published 2023).
*1 amine or outer side, *2 acyl side, *3 side chain or, on linkers, in order; H or OH if unused. Where no end group is shown, it is not given here. Side-chain parts run from the residue outwards. [ ]: non-standard residue; d: D form. The star is where a group is joined. αMePhe(2-F) = C[C@](N)(Cc1ccccc1F)C(=O)O; γGlu = O=C(O)[C@H](CCC(=O)[*:2])N[*:1]; C14 diacid = O=C(O)CCCCCCCCCCCCC(=O)*; εLys = N[C@@H](CCCCN[*:1])C(=O)[*:2]; αMeY = C[C@](N)(Cc1ccc(O)cc1)C(=O)O; αMeL = CC(C)C[C@](C)(N)C(=O)O; Orn = NCCC[C@H](N)C(=O)O; Dap = NC[C@H](N)C(=O)O; AEEA = NCCOCCOCC(=O)O; Aib = CC(C)(N)C(=O)O

Assays:
[1] = target: human glucagon-like peptide-1 (GLP-1) receptor (human, UniProt P43220 24-463); test: cell-based or functional assay
[2] = target: T1, human glucose-dependent insulinotropic polypeptide (GIP) receptor (human, UniProt P48546 22-466); test: cell-based or functional assay
T1 sequence (looked up): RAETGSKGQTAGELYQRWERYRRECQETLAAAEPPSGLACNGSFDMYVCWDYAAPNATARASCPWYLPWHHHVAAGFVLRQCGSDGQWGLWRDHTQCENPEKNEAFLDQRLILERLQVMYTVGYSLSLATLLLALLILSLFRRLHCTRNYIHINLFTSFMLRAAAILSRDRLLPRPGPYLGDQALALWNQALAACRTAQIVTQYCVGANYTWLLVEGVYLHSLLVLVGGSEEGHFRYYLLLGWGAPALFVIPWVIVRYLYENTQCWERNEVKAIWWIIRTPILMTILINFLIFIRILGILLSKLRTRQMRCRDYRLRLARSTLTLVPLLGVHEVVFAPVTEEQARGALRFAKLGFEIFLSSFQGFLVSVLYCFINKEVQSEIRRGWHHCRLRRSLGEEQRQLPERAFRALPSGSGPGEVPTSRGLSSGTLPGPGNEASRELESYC

| Binder | cAMP EC50 [1] [nM] | cAMP EC50 [2] [nM] | cAMP Emax [2] [%] | cAMP Emax [1] [%] |
| --- | --- | --- | --- | --- |
| Y[Aib]EGT[αMePhe(2-F)]TSDV[Aib]I[αMeL]LD[Orn]K([εLys-γGlu-C14 diacid])AQ[Aib]EFI[dE][αMeY]LIEGGK([εLys-γGlu-C14 diacid])SSGAPPPS-NH2 (N-terminus assumed; SMILES CC[C@H](C)[C@H](NC(=O)[C@H](CC(C)C)NC(=O)[C@](C)(Cc1ccc(O)cc1)NC(=O)[C@@H](CCC(=O)O)NC(=O)[C@@H](NC(=O)[C@H](Cc1ccccc1)NC(=O)[C@H](CCC(=O)O)NC(=O)C(C)(C)NC(=O)[C@H](CCC(N)=O)NC(=O)[C@H](C)NC(=O)[C@H](CCCCNC(=O)[C@@H](N)CCCCNC(=O)CC[C@H](NC(=O)CCCCCCCCCCCCC(=O)O)C(=O)O)NC(=O)[C@H](CCCN)NC(=O)[C@H](CC(=O)O)NC(=O)[C@H](CC(C)C)NC(=O)[C@](C)(CC(C)C)NC(=O)[C@@H](NC(=O)C(C)(C)NC(=O)[C@@H](NC(=O)[C@H](CC(=O)O)NC(=O)[C@H](CO)NC(=O)[C@@H](NC(=O)[C@](C)(Cc1ccccc1F)NC(=O)[C@@H](NC(=O)CNC(=O)[C@H](CCC(=O)O)NC(=O)C(C)(C)NC(=O)[C@@H](N)Cc1ccc(O)cc1)[C@@H](C)O)[C@@H](C)O)C(C)C)[C@@H](C)CC)[C@@H](C)CC)C(=O)N[C@@H](CCC(=O)O)C(=O)NCC(=O)NCC(=O)N[C@@H](CCCCNC(=O)[C@@H](N)CCCCNC(=O)CC[C@H](NC(=O)CCCCCCCCCCCCC(=O)O)C(=O)O)C(=O)N[C@@H](CO)C(=O)N[C@@H](CO)C(=O)NCC(=O)N[C@@H](C)C(=O)N1CCC[C@H]1C(=O)N1CCC[C@H]1C(=O)N1CCC[C@H]1C(=O)N[C@@H](CO)C(N)=O) [Example 164] | 0.236 | 0.0464 | 95.8 | – |
| Y[Aib]EGT[αMePhe(2-F)]TSDV[Dap]I[αMeL]LD[Orn]K([AEEA-AEEA-γGlu-C14 diacid])AQ[Aib]EFI[dE][αMeY]LIEGGK([AEEA-AEEA-γGlu-C14 diacid])SSGAPPPS-NH2 (N-terminus assumed; SMILES CC[C@H](C)[C@H](NC(=O)[C@H](CC(C)C)NC(=O)[C@](C)(Cc1ccc(O)cc1)NC(=O)[C@@H](CCC(=O)O)NC(=O)[C@@H](NC(=O)[C@H](Cc1ccccc1)NC(=O)[C@H](CCC(=O)O)NC(=O)C(C)(C)NC(=O)[C@H](CCC(N)=O)NC(=O)[C@H](C)NC(=O)[C@H](CCCCNC(=O)COCCOCCNC(=O)COCCOCCNC(=O)CC[C@H](NC(=O)CCCCCCCCCCCCC(=O)O)C(=O)O)NC(=O)[C@H](CCCN)NC(=O)[C@H](CC(=O)O)NC(=O)[C@H](CC(C)C)NC(=O)[C@](C)(CC(C)C)NC(=O)[C@@H](NC(=O)[C@H](CN)NC(=O)[C@@H](NC(=O)[C@H](CC(=O)O)NC(=O)[C@H](CO)NC(=O)[C@@H](NC(=O)[C@](C)(Cc1ccccc1F)NC(=O)[C@@H](NC(=O)CNC(=O)[C@H](CCC(=O)O)NC(=O)C(C)(C)NC(=O)[C@@H](N)Cc1ccc(O)cc1)[C@@H](C)O)[C@@H](C)O)C(C)C)[C@@H](C)CC)[C@@H](C)CC)C(=O)N[C@@H](CCC(=O)O)C(=O)NCC(=O)NCC(=O)N[C@@H](CCCCNC(=O)COCCOCCNC(=O)COCCOCCNC(=O)CC[C@H](NC(=O)CCCCCCCCCCCCC(=O)O)C(=O)O)C(=O)N[C@@H](CO)C(=O)N[C@@H](CO)C(=O)NCC(=O)N[C@@H](C)C(=O)N1CCC[C@H]1C(=O)N1CCC[C@H]1C(=O)N1CCC[C@H]1C(=O)N[C@@H](CO)C(N)=O) [Example 201] | 0.487 | 0.188 | 92.2 | – |
| Y[Aib]EGT[αMePhe(2-F)]TSDV[Aib]I[αMeL]LD[Orn]K([AEEA-AEEA-εLys-C14 diacid])AQ[Aib]EFI[dE][αMeY]LIEGGK([AEEA-AEEA-εLys-C14 diacid])SSGAPPPS-NH2 [Example 163] | 0.199 | 0.0427 | 98.2 | 86.3 |
| YXEGTXTSDVXIXLDXKAQXEFIXXLIEGGKSSGAPPPS (Aib2, αMeF(2F)6, αMeS11, αMeL13, Orn16, K17(Z), Aib20, D-Glu24, αMeY25, K31(Z), C-terminal NH2; Z = AEEA2-(γ-Glu)-CO-(CH2)12-CO2H) [Example 212] | 0.265 | 0.0385 | 100 | – |
